Measurements reported in publication PMC8395645.

Target: FGFR2b Ig-like domains 2-3 (UniProt P21802-3 140-369)
Assay: ITC

B1: Apt_46 (structured_DNA)
DNA: TGTTGGGAGGGGATGGGACGTATAGGTAAGGGCGGGGGTGGACACG
Kd: 46.3 ± 16.2 nM
